Results reported in publication PMC9652281, “Design and directed evolution of noncanonical β-stereoselective metalloglycosidases” (Nature Communications, 2022).

Tests used:
[1] = tested on: T1, O=C(Cc1cccs1)N[C@@H]1C(=O)N2C(C(=O)O)=C(/C=C/c3ccc([N+](=O)[O-])cc3[N+](=O)[O-])CS[C@H]12; assay: purified protein; type: biochemical, Escherichia coli; details: 50 mM Tris-HCl pH 8, room temperature
T1 construct: mature OmpF; His-tag and thrombin site deleted; beta-barrel trimer

[2] = molecular target: the molecule itself; assay: SDS-PAGE of the refolded protein; unfolded OmpF (20 mg/mL) refolded with 1% n-dodecyl-β-D-glucopyranoside and 1% n-dodecyl-β-D-maltopyranoside at 37 °C for 1-2 days; folding and oligomerization determined by 15% SDS-PAGE
[3] = OmpF2, 1.2 equiv. ZnCl2, 10 µM protein
[4] = OmpF1Y, 1.2 equiv. ZnCl2, 10 µM protein
[5] = OmpF1, 1.2 equiv. ZnCl2, 10 µM protein

Work on “OmpF (outer membrane protein F; OmpF1, OmpF1Y, OmpF2 and evolved variants) (Escherichia coli K-12; L105H/R154H/Y124H)” yielded a Km [1, 3] of 1700 ± 600 µM and a kcat [1, 3] of 0.025 ± 0.005 s⁻¹.

For “OmpF (outer membrane protein F; OmpF1, OmpF1Y, OmpF2 and evolved variants) (Escherichia coli K-12; R104H/R154H)”, the Km [1, 4] was 2000 ± 1000 µM and the kcat [1, 4] was 0.02 ± 0.01 s⁻¹.

“OmpF (outer membrane protein F; OmpF1, OmpF1Y, OmpF2 and evolved variants) (Escherichia coli K-12; R104H/R154H/Y124H)” was tested, and the Km [1, 5] was 1400 ± 600 µM and the kcat [1, 5] was 0.017 ± 0.004 s⁻¹.

B1: OmpF1 (OmpF R82H/Y102H/R132H) (natural protein, UniProt P02931 23-362, looked up)
chain: AEIYNKDGNKVDLYGKAVGLHYFSKGNGENSYGGNGDMTYARLGFKGETQINSDLTGYGQWEYNFQGNNSEGADAQTGNKTHLAFAGLKYADVGSFDYGRNHGVVYDALGYTDMLPEFGGDTAYSDDFFVGHVGGVATYRNSNFFGLVDGLNFAVQYLGKNERDTARRSNGDGVGGSISYEYEGFGIVGAYGAADRTNLQEAQPLGNGKKAEQWATGLKYDANNIYLAANYGETRNATPITNKFTNTSGFANKTQDVLLVAQYQFDFGLRPSIAYTKSKAKDVEGIGDVDLVNYFEVGATYYFNKNMSTYVDYIINQIDSDNKLGVGSDDTVAVGIVYQF
notes: outer membrane protein F (OmpF), UniProt P02931, expressed without the native 22-residue signal peptide; His-tag and thrombin site were deleted from the plasmid; Crystallised with 1.2 equiv. of Zn ion per protomer; also called R132H/Y102H/R82H; source: E. coli BL21(DE3)
In the case of B1, the “stoichiometry N” value [2] is reported as 3.

B2: OmpF2 (OmpF L83H/Y102H/R132H) (natural protein, UniProt P02931 23-362, looked up)
chain: AEIYNKDGNKVDLYGKAVGLHYFSKGNGENSYGGNGDMTYARLGFKGETQINSDLTGYGQWEYNFQGNNSEGADAQTGNKTRHAFAGLKYADVGSFDYGRNHGVVYDALGYTDMLPEFGGDTAYSDDFFVGHVGGVATYRNSNFFGLVDGLNFAVQYLGKNERDTARRSNGDGVGGSISYEYEGFGIVGAYGAADRTNLQEAQPLGNGKKAEQWATGLKYDANNIYLAANYGETRNATPITNKFTNTSGFANKTQDVLLVAQYQFDFGLRPSIAYTKSKAKDVEGIGDVDLVNYFEVGATYYFNKNMSTYVDYIINQIDSDNKLGVGSDDTVAVGIVYQF
notes: outer membrane protein F (OmpF), UniProt P02931, expressed without the native 22-residue signal peptide; His-tag and thrombin site were deleted from the plasmid; Crystallised with 1.2 equiv. of Zn ion per protomer; also called R132H/Y102H/L83H; source: E. coli BL21(DE3)
In the case of B2, the “stoichiometry N” value [2] is reported as 3.
